Patent US20170145086A1 (VISTERRA, published 2017)
“And” between values parts separate entries of the source, which are not always exact repeats. Identical values can stand only once.

T1: HA-GCN4 hAPRIL (amino acid residues 105-250) (human, UniProt O75888 105-250)
T1 construct: Bought (R&D Systems); also called HA-tagged GCN4 human APRIL; HA-GCN4-huAPRIL; not shown: N-terminal HA tag; GCN4 isoleucine zipper oligomerization domain
T1 sequence: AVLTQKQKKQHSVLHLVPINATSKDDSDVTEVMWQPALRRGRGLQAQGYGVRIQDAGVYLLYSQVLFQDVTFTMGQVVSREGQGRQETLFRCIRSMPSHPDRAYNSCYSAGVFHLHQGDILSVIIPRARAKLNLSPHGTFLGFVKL

T2: HA-GCN4 mAPRIL (amino acid residues 96-241) (mouse, UniProt Q9D777 96-241, Assembles as a homotrimer through the GCN4 zipper; one protomer is given.)
T2 construct: Bought (R&D Systems); also called HA-tagged mouse APRIL (R&D Systems); recombinant mouse APRIL; not shown: N-terminal HA tag and GCN4 isoleucine-zipper trimerisation domain, with any linker, of the bought R&D Systems protein
T2 sequence: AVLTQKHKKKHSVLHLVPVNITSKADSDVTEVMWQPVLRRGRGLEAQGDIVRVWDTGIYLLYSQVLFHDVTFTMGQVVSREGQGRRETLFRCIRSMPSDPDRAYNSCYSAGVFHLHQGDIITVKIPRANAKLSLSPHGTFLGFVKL


What was measured:
[1] = biological target: T1, HA-GCN4 hAPRIL (amino acid residues …); test: blocking ELISA; blocked: human APRIL binding to human BCMA-Fc; design: concentration or dose not given beside the values
Experimental: (§1) FIGS. 19A-19B depict the antibody inhibition of APRIL binding to TNFSF receptors TACI (FIG. 19A) and BCMA (FIG. 19B). Assay is based on blocking ELISA using recombinant human APRIL (R&D Systems) and Human TACI-Fc. Inhibition was analyzed by non-linear regression using a four parameter fit.
(§2) Recombinant TACI-Fc or BCMA-Fc was coated on 96 well plates in 0.1 M carbonate-bicarbonate buffer (pH 9.6), overnight at 4° C. Plates were washed three times with 1×PBST (PBS+0.025% Tween 20) followed by blocking with 1% BSA in 1×PBS, 37° C. for 1 hour. All subsequent wash steps were carried out with 1×PBST. To assess antibody blocking, either 15 ng/mL or 50 ng/mL HA-GCN4-huAPRIL was preincubated with varying antibody concentrations ranging from 0.03-30 μg/mL in binding buffer comprised of 1% BSA and 0.025% Tween-20 in 1×PBS. Preincubation was carried out at 30° C. for 1 hour with mixing. Antibody-APRIL premix with 50 ng/mL APRIL or 15 ng/mL APRIL was then added to TACI-Fc coated or BCMA-Fc coated plates, respectively, and incubated for an additional hour at 30° C. HA-tagged APRIL binding to either receptor was quantified using a goat polyclonal anti-HA tag-HRP antibody (Abcam) added at a 1:10000 dilution followed by colorimetric development using 100 μl/well of freshly prepared TMB substrate (KPL) carried out for up to 30 minutes at room temperature before quenching enzymatic reaction by the addition of 1N sulfuric acid. ELISA signal was quantified by absorbance at 450 nm. ELISA data was analyzed by non-linear regression. IC₅₀ values were calculated based on a 4 parameter fit of antibody titration curves. […] Non-blocking antibodies Aprly-1 or Aprly-5 (Enzo Biosciences) were used as negative controls. Mouse specific, blocking antibody aprily-1-1 (Adipogen) was generally used as a positive control in experiments using mouse APRIL (HA-GCN4-mAPRIL).

[2] = biological target: T1, HA-GCN4 hAPRIL (amino acid residues …); test: indirect ELISA on human APRIL; column head prints IC50 (pM), legend paragraph 725 calls the values EC50
Source text: (§3) Purified antibodies were further characterized for APRIL binding, APRIL species cross reactivity (human APRIL vs. mouse APRIL), and receptor blocking activity using TACI-Fc. For binding, an APRIL-based indirect ELISA was used to determine by first approximation the relative affinity of purified anti-APRIL antibodies to either human APRIL or mouse APRIL. ELISA method was as generally described above. […] Blocking and wash steps were completed as described. Binding of anti-APRIL antibodies to APRIL was quantified using an 8 point dilution of test antibody that spanned over a four log scale. Antibody binding to APRIL was detected using a rabbit anti-mouse IgG (H+L)-HRP conjugate (Jackson ImmunoResearch Laboratories). Antibody binding data was analyzed by non-linear regression analysis using a 3 parameter fit to determine max binding and apparent EC₅₀ values. […] Mouse specific antibody Apry-1-1 (Adipogen) was likewise used for quantification of antibody binding to mouse APRIL.

[3] = biological target: T1, HA-GCN4 hAPRIL (amino acid residues …); test: blocking ELISA, 4-parameter fit; blocked: human APRIL binding to human TACI-Fc
Experimental: as §1, §2

[4] = biological target: T1, HA-GCN4 hAPRIL (amino acid residues …); test: blocking ELISA; blocked: human APRIL binding to human TACI-Fc; design: concentration or dose not given beside the values
Experimental: as §1, §2

[5] = biological target: T2, HA-GCN4 mAPRIL (amino acid residues …); test: blocking ELISA; blocked: mouse APRIL binding to BCMA
[6] = biological target: T1, HA-GCN4 hAPRIL (amino acid residues …); test: blocking ELISA; blocked: human APRIL binding to human BCMA-Fc; design: concentration or dose not given beside the values; remark: listed apart in the source
Experimental: as §2

[7] = biological target: T1, HA-GCN4 hAPRIL (amino acid residues …); test: blocking ELISA; blocked: human APRIL binding to human TACI-Fc; design: concentration or dose not given beside the values; remark: listed apart in the source
Experimental: as §2

[8] = biological target: T1, HA-GCN4 hAPRIL (amino acid residues …); test: blocking ELISA, 4-parameter fit; blocked: human APRIL binding to human BCMA-Fc
Experimental: as §2

[9] = biological target: T1, HA-GCN4 hAPRIL (amino acid residues …); test: indirect ELISA on HA-GCN4 human APRIL, 3-parameter fit
Experimental: FIG. 5 depicts the binding of anti-APRIL antibodies to human APRIL. Relative binding of select anti-APRIL antibodies was measured by indirect ELISA. Select antibodies based on prior hybridoma screening were recombinantly produced (based on immunoglubin VH and VL gene sequencing) as described. HA-tagged GCN4 human APRIL R&D Systems was used as source of APRIL. Binding data was analyzed by non-linear regression using a three parameter fit.
as §3

Row | Binder | % Inhibition [1] | EC50 [2] | IC50 [3] | % Inhibition [4] | IC50 (read off the curve) [5] | % Inhibition [6] | % Inhibition [7] | IC50 [8] | EC50 [9] | binding result [5]
1 | 4237 (antibody, V domains shown, also called monoclonal antibody 4237) VH: QAHLKESGPGLVAPSQSLSITCTVSGFSLTDYDVHWVRQSPGKGLEWLGVIWNDGSTDYNTAFISRLTISKDNSKSQVFFKMNSLQADDTAIYYCARNWYGGYWFAYWGQGTLVTVSA VL: DIQMTQSPASLSASAGETVTITCRSSENIYSYLAWYQQKQGKSPQLLVYNANALAEGVPSRFSGSGSVTQFSLKINSLQPEDFGSYYCQHHYGTPFTFGSGTKLEIK | 93% | 0.0126 nM | 0.9 nM | 95% | – | – | – | – | – | –
2 | monoclonal antibody 3530 (antibody, mouse IgG2, V domains shown) VH: QVQLQQSGAELVRPGASVKLSCKASGYTFTDHEMHWVRQTPVHGLEWIGVIDPDTGDTTYNQKFKGKATLTADKSSSTAYMDLRSLTSEDSAVFYCTRWTGGDYWGHGTTLTVSS VL: DAVMTQTPLSLSVTIGQPASISCKSSQSLLYSDGKTYLNWFQQRPGQSPKRLMYQVSKLDPGIPDRFSGSGSETDFTLKISRVEAEDLGVYYCLQGTYYPYTFGSGTKLEIK | 37% | 0.0489 nM | 2.9 nM | 89% | ~0.3 µg/mL | 35% | 81% | 0.68 nM | 0.058 µg/mL and 0.392 nM | –
3 | monoclonal antibody 3833 (antibody, V domains shown, mouse-derived) VH: QVQLQQSGAELVRPGTSVKMSCKAAGYTFTNYWIGWVKQRPGHGLEWIGDIYPGGIGGGYTKYNEKFKGKATLTADTSSSTAYMQLGSLTSEDSAIYFCSRSETGRAMDYWGQGTSVTVSS VL: DIQMTQSPSSLSASLGGKVTITCKASQDINKYIAWYQHKPGKGPRLLIHYTSTLKPGIPSRFSGSGSGRDYSFSISDLEPEDIATYYCLQYDNLNTFGGGTKLEIK | 96% | 0.0175 nM | 2.25 nM | 72% | ~0.06 µg/mL | – | – | – | – | –
4 | monoclonal antibody 3631 (antibody, V domains shown, mouse-derived) VH: EIQLQQSGPELVKPGASVKVSCKASGYSFTDYNIYWVKQSHGKSLEWIGYIDPSNGGPGYNQKFRGKATLTVDKSSSTAFLHLNSLTSEDSAVYYCARRDNYGSGTMDYWGQGTSVTVSS VL: DIVMTQSQKFMSTSVGDRVSITCKASQNVGTDVSWYQQKPGKSPKPLIYWASNRFTGVPDRFIGSGSGTDFTLTISNVQSEDLADYFCEQYSIYPLTFGAGTKLELK | 100% | 0.0166 nM | 0.27 nM | 63% | – | – | – | – | – | binds

Further binders by falling EC50 [2], results first:

Row | % Inhibition [1] | EC50 [2] | IC50 [3] | % Inhibition [4] | IC50 (read off the curve) [5] | % Inhibition [6] | % Inhibition [7] | IC50 [8] | EC50 [9] | binding result [5] | Binder
5 | 98% | 0.0129 nM | 1.01 nM | 65% | ~0.3 µg/mL | – | – | – | – | – | monoclonal antibody 4540 (antibody, V domains shown, mouse-derived) VH: QVQLQQSGPELVKPGASVKISCKASGYTFADYYINWVKQRPGQGLEWIGWIFPGSGSTYYNEKFKGKATLTVDKSSSTAYMLLSSLTSEDSAVYFCARGDSGRAMDYWGQGTSVTVSS VL: DIQMTQSPSSLSASLGGKVTITCKASQDINKYIAWYQHKPGKGPRLLIHYTSTLQSGIPSRFSGSGSGRDYSFSISNLEPEDNATYYCLQYDNLLTFGAGTKLELK
6 | 100% | 0.0072 nM | – | – | – | – | – | – | – | binds | monoclonal antibody 3732 (antibody, V domains shown, mouse-derived) VH: EIQLQQSGPELVKPGASVKVSCKASGYSFTDDNMYWVKQSHGKSLEWIGYIDPLNGGTGYNQKFKGKATLTVDKSSSTAFLHLNSLTSEDSAVYYCARRDNYATGTMDYWGQGTSVTVSS VL: DIVMTQSQKFMSTSVGDRVSITCKASKNVGTDVSWYQQKPGKSPKPLIYWASNRFTGVPDRFTGSGSGTDFTLTINNVQSEDLADYFCEQYSSYPLTFGAGTKLELK
7 | 99% | 0.005 nM | 0.98 nM | 40% | – | 100% | 91% | 0.22 nM | 0.0126 µg/mL and 0.085 nM | – | monoclonal antibody 2218 (antibody, mouse IgG2, V domains shown) VH: DVQLQESGPGLVKPSQSLSLTCSVTGYSITSGYYWNWIRQFPGNKLEWMGYISYDGYNNYNPSLKNRISITRDTSKNQFFLKLNSVTTEDTATYYCANYYDYEDWYFGVWGTGTTVTVSS VL: DIVLTQSPASLAMSLGKRATISCRASESVSIIGTNSIHWYQQKPGQPPKLLIYHASNLETGVPARFSGSGSRTDFTLTIDPVEEDDVAIYYCLQSRKIPYTFGGGTKLEIK
